Drawing on patent US20180291110A1 (Hoffmann-La Roche, published 2018), this text covers koff, Kd and kon for 22 molecules.

The target of assay [1] is T1, human transferrin receptor (recombinant, for surface plasmon resonance) (human, UniProt P02786 89-760).
T1 construct: also called huTfR; human transferrin receptor-biotinylated
The experiment in a line: SPR. In general terms: In SPR one partner is held on a chip, and binding of the other changes the refractive index at the surface.

Assay [2] deals with T2, Her2 ECD (amino acids 1 to 629 of matured HER2 with C-terminal avi-tag and His-tag) (human, UniProt P04626 23-652).
T2 construct: also called purified Her2
The experiment in a line: SPR, Ab captured, Her2 analyte.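 Also: ProteOn XPR36 SPR, rate constants from simultaneous fit of association and dissociation sensorgrams to a 1:1 Langmuir model, buffer-channel referenced, KD taken as koff/kon.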

T1 sequence (P02786 89-760 limits assumed): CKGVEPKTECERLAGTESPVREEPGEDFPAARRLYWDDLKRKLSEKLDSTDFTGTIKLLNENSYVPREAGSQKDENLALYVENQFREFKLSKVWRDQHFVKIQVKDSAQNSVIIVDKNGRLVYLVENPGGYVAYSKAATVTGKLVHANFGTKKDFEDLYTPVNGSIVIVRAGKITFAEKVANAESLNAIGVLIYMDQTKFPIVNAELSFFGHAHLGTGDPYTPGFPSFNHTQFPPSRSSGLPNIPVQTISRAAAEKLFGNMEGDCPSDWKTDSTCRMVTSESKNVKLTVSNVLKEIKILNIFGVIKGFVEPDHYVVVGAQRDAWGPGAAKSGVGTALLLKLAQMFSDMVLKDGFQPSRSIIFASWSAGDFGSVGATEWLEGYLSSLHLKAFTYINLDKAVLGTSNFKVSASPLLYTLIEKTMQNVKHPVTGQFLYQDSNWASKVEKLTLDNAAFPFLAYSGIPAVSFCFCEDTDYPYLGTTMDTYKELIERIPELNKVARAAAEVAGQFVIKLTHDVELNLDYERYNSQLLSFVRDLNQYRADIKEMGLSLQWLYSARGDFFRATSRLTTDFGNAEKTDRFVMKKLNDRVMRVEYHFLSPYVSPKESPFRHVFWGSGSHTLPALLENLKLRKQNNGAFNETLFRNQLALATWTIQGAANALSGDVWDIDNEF

B1: 4/94 murine VH / murine VL (antibody, V domains shown)
VH: EVQLQQSGAVLVKPGASVKLSCPASGFNIKDTYIHWVIQRPEQGLEWIGRIDPANGDTKCDPKFQVKATITADTSSNTAYLQLSSLTSEDTAVYFCVRDYLYPYYFDFWGQGTTLTVSS
VL: KIVMTQSPKSMSMSVGERVTLNCRASESVDTYVSWYQQKPEQSPELLIYGASNRYTGVPDRFTGSGSATDFTLTISSVQAEDLADYYCGQTYNYPLTFGAGTKLELKR
notes: 0 (mu) read as the murine parental domains of clone 4/94; also called 0 (mu) x 0 (mu)
For orientation: koff means the first-order rate constant of dissociation. On to B1, for which the koff in assay [1] was 0.000136 s⁻¹.

B2: 4/94 SEQ ID NO 196 / murine VL (antibody, V domains shown)
VH: QVQLVQSGAEVKKPGASVKVSCKASGFNIKDTYIHWVIQAPGQGLEWMGRIDPANGDTKSDPKFQGRVTITADTSTSTVYMELSSLRSEDTAVYYCVRDYLYPYYFDFWGQGTTVTVSS
VL: KIVMTQSPKSMSMSVGERVTLNCRASESVDTYVSWYQQKPEQSPELLIYGASNRYTGVPDRFTGSGSATDFTLTISSVQAEDLADYYCGQTYNYPLTFGAGTKLELKR
Consider B2, for which, in assay [1], the koff came to 0.000339 s⁻¹.

B3: 4/94 murine VH / SEQ ID NO 201 (antibody, V domains shown)
VH: EVQLQQSGAVLVKPGASVKLSCPASGFNIKDTYIHWVIQRPEQGLEWIGRIDPANGDTKCDPKFQVKATITADTSSNTAYLQLSSLTSEDTAVYFCVRDYLYPYYFDFWGQGTTLTVSS
VL: KIQMTQSPSSLSASVGDRVTITCRASESVDTYVSWYQQKPGKAPKLLIYGASNRYTGVPSRFSGSGSGTDFTLTISSLQPEDFADYYCGQTYNYPLTFGQGTKLEI
For the molecule B3, the off-rate constant (koff) in assay [1] came out at 0.000137 s⁻¹.

B4: 4/94 murine VH / SEQ ID NO 207 (antibody, V domains shown)
VH: EVQLQQSGAVLVKPGASVKLSCPASGFNIKDTYIHWVIQRPEQGLEWIGRIDPANGDTKCDPKFQVKATITADTSSNTAYLQLSSLTSEDTAVYFCVRDYLYPYYFDFWGQGTTLTVSS
VL: KIVLTQSPGTLSLSPGERATLSCRASESVDTYVSWYQQKPGQAPRLLIYGASNRYTGVPDRFSGSGSGTDFTLTISRLEPEDFADYYCGQTYNYPLTFGQGTKLEI
As for B4, in assay [1], the off-rate (koff) worked out at 0.000156 s⁻¹.

B5: 4/94 murine VH / SEQ ID NO 209 (antibody, V domains shown)
VH: EVQLQQSGAVLVKPGASVKLSCPASGFNIKDTYIHWVIQRPEQGLEWIGRIDPANGDTKCDPKFQVKATITADTSSNTAYLQLSSLTSEDTAVYFCVRDYLYPYYFDFWGQGTTLTVSS
VL: KIVLTQSPGTLSLSPGERATLSCRASESVDTYVSWYQQKPGQAPRLLIYGASNRYTGIPDRFSGSGSGTDFTLTISRLEPEDFADYYCGQTYNYPLTFGQGTKLEI
With B5, the off-rate (koff) in assay [1] amounted to 0.000177 s⁻¹.

B6: 4/94 murine VH / SEQ ID NO 208 (antibody, V domains shown)
VH: EVQLQQSGAVLVKPGASVKLSCPASGFNIKDTYIHWVIQRPEQGLEWIGRIDPANGDTKCDPKFQVKATITADTSSNTAYLQLSSLTSEDTAVYFCVRDYLYPYYFDFWGQGTTLTVSS
VL: EIVLTQSPGTLSLSPGERATLSCRASESVDTYVSWYQQKPGQAPRLLIYGASNRYTGVPDRFSGSGSGTDFTLTISRLEPEDFADYYCGQTYNYPLTFGQGTKLEI
As for B6, in assay [1], the koff turned out to be 0.000148 s⁻¹.

B7: 4/94 SEQ ID NO 194 / murine VL (antibody, V domains shown)
VH: QVQLVQSGAEVKKPGASVKVSCKASGFNIKDTYIHWVIQAPGQGLEWMGRIDPANGDTKSDPKFQVRVTITADTSTSTVYMELSSLRSEDTAVYYCVRDYLYPYYFDFWGQGTTVTVSS
VL: KIVMTQSPKSMSMSVGERVTLNCRASESVDTYVSWYQQKPEQSPELLIYGASNRYTGVPDRFTGSGSATDFTLTISSVQAEDLADYYCGQTYNYPLTFGAGTKLELKR
For the molecule B7, in assay [1], the koff was 0.00037 s⁻¹.

B8: Pertuzumab HC x Pertuzumab (Tras.L3) P96Y LC (antibody, V domains shown)
VH: EVQLVESGGGLVQPGGSLRLSCAASGFTFTDYTMDWVRQAPGKGLEWVADVNPNSGGSIYNQRFKGRFTLSVDRSKNTLYLQMNSLRAEDTAVYYCARNLGPSFYFDYWGQGTLVTVSS
VL: DIQMTQSPSSLSASVGDRVTITCKASQDVSIGVAWYQQKPGKAPKLLIYSASYRYTGVPSRFSGSGSGTDFTLTISSLQPEDFATYYCQQHYTTPYTFGQGTKVEIK
Broadly, the Kd is the free concentration of one partner at which half of the binding sites on the other are occupied at equilibrium, for simple one-to-one binding. What is called kon is a measure of how fast the partners come together. Read a high kon as faster complex formation. For the molecule B8, in assay [2], the dissociation constant (Kd) came out at 2.82 nM, the dissociation rate constant (koff) was 0.00097 s⁻¹ and the kon amounted to 344000 M⁻¹ s⁻¹.

B9: Trastuzumab HC x Pertuzumab (Tras.L3) I31T LC (antibody, V domains shown)
VH: not shown
VL: DIQMTQSPSSLSASVGDRVTITCKASQDVSTGVAWYQQKPGKAPKLLIYSASYRYTGVPSRFSGSGSGTDFTLTISSLQPEDFATYYCQQHYTTPPTFGQGTKVEIK
In assay [2], B9 had an equilibrium dissociation constant (Kd) of 7.21 nM, a koff of 0.00341 s⁻¹ and an association rate constant (kon) of 473000 M⁻¹ s⁻¹.

B10: Trastuzumab HC x Pertuzumab (Tras.L3) R54L LC (antibody, V domains shown)
VH: not shown
VL: DIQMTQSPSSLSASVGDRVTITCKASQDVSIGVAWYQQKPGKAPKLLIYSASYLYTGVPSRFSGSGSGTDFTLTISSLQPEDFATYYCQQHYTTPPTFGQGTKVEIK
In assay [2], B10 yielded a Kd of 71.5 nM, an off-rate (koff) of 0.0297 s⁻¹ and a kon of 416000 M⁻¹ s⁻¹.

B11: Pertuzumab HC x Pertuzumab (Tras.L3) R54L LC (antibody, V domains shown)
VH: EVQLVESGGGLVQPGGSLRLSCAASGFTFTDYTMDWVRQAPGKGLEWVADVNPNSGGSIYNQRFKGRFTLSVDRSKNTLYLQMNSLRAEDTAVYYCARNLGPSFYFDYWGQGTLVTVSS
VL: DIQMTQSPSSLSASVGDRVTITCKASQDVSIGVAWYQQKPGKAPKLLIYSASYLYTGVPSRFSGSGSGTDFTLTISSLQPEDFATYYCQQHYTTPPTFGQGTKVEIK
Consider B11, for which, in assay [2], binding was characterised by a dissociation constant (Kd) of 4.87 nM, the off-rate constant (koff) was determined as 0.00226 s⁻¹ and the on-rate constant (kon) turned out to be 464000 M⁻¹ s⁻¹.

B12: Trastuzumab HC x Pertuzumab (Tras.L3) I31V LC (antibody, V domains shown)
VH: not shown
VL: DIQMTQSPSSLSASVGDRVTITCKASQDVSVGVAWYQQKPGKAPKLLIYSASYRYTGVPSRFSGSGSGTDFTLTISSLQPEDFATYYCQQHYTTPPTFGQGTKVEIK
In the case of B12, in assay [2], binding was characterised by a dissociation constant (Kd) of 28 nM, the koff was 0.0116 s⁻¹ and the kon was found to be 413000 M⁻¹ s⁻¹.

B13: Trastuzumab HC x Pertuzumab (Tras.L3) S30N LC (antibody, V domains shown)
VH: not shown
VL: DIQMTQSPSSLSASVGDRVTITCKASQDVNIGVAWYQQKPGKAPKLLIYSASYRYTGVPSRFSGSGSGTDFTLTISSLQPEDFATYYCQQHYTTPPTFGQGTKVEIK
In the case of B13, in assay [2], the dissociation constant (Kd) was 64.6 nM, the koff stood at 0.0256 s⁻¹ and the kon worked out at 396000 M⁻¹ s⁻¹.

B14: Pertuzumab HC x Pertuzumab (Tras.L3) T56S LC (antibody, V domains shown)
VH: EVQLVESGGGLVQPGGSLRLSCAASGFTFTDYTMDWVRQAPGKGLEWVADVNPNSGGSIYNQRFKGRFTLSVDRSKNTLYLQMNSLRAEDTAVYYCARNLGPSFYFDYWGQGTLVTVSS
VL: DIQMTQSPSSLSASVGDRVTITCKASQDVSIGVAWYQQKPGKAPKLLIYSASYRYSGVPSRFSGSGSGTDFTLTISSLQPEDFATYYCQQHYTTPPTFGQGTKVEIK
B14: in assay [2], the dissociation constant (Kd) is 5.52 nM, the koff turned out to be 0.00245 s⁻¹ and the kon was 443000 M⁻¹ s⁻¹.

B15: Trastuzumab HC x Pertuzumab (Tras.L3) G66R LC (antibody, V domains shown)
VH: not shown
VL: DIQMTQSPSSLSASVGDRVTITCKASQDVSIGVAWYQQKPGKAPKLLIYSASYRYTGVPSRFSGSRSGTDFTLTISSLQPEDFATYYCQQHYTTPPTFGQGTKVEIK
On to B15, for which, in assay [2], the Kd came to 10.9 nM, the koff turned out to be 0.00558 s⁻¹ and the kon came to 514000 M⁻¹ s⁻¹.

B16: Trastuzumab HC x Pertuzumab (Tras.L3) T56S LC (antibody, V domains shown)
VH: not shown
VL: DIQMTQSPSSLSASVGDRVTITCKASQDVSIGVAWYQQKPGKAPKLLIYSASYRYSGVPSRFSGSGSGTDFTLTISSLQPEDFATYYCQQHYTTPPTFGQGTKVEIK
As to B16, in assay [2], the affinity, expressed as Kd, was 49.4 nM; the koff came to 0.0232 s⁻¹; the kon was 470000 M⁻¹ s⁻¹.

B17: Pertuzumab HC x Pertuzumab (Tras.L3) S30N LC (antibody, V domains shown)
VH: EVQLVESGGGLVQPGGSLRLSCAASGFTFTDYTMDWVRQAPGKGLEWVADVNPNSGGSIYNQRFKGRFTLSVDRSKNTLYLQMNSLRAEDTAVYYCARNLGPSFYFDYWGQGTLVTVSS
VL: DIQMTQSPSSLSASVGDRVTITCKASQDVNIGVAWYQQKPGKAPKLLIYSASYRYTGVPSRFSGSGSGTDFTLTISSLQPEDFATYYCQQHYTTPPTFGQGTKVEIK
In assay [2], B17 showed a Kd of 3.4 nM, a koff of 0.0018 s⁻¹ and a kon of 530000 M⁻¹ s⁻¹.

B18: Pertuzumab HC x Pertuzumab (Tras.L3) Y53F LC (antibody, V domains shown)
VH: EVQLVESGGGLVQPGGSLRLSCAASGFTFTDYTMDWVRQAPGKGLEWVADVNPNSGGSIYNQRFKGRFTLSVDRSKNTLYLQMNSLRAEDTAVYYCARNLGPSFYFDYWGQGTLVTVSS
VL: DIQMTQSPSSLSASVGDRVTITCKASQDVSIGVAWYQQKPGKAPKLLIYSASFRYTGVPSRFSGSGSGTDFTLTISSLQPEDFATYYCQQHYTTPPTFGQGTKVEIK
In assay [2], B18 displayed a dissociation constant (Kd) of 8.03 nM, a koff of 0.00254 s⁻¹ and an association rate constant (kon) of 316000 M⁻¹ s⁻¹.

B19: Pertuzumab HC x Pertuzumab (Tras.L3) T94Y LC (antibody, V domains shown)
VH: EVQLVESGGGLVQPGGSLRLSCAASGFTFTDYTMDWVRQAPGKGLEWVADVNPNSGGSIYNQRFKGRFTLSVDRSKNTLYLQMNSLRAEDTAVYYCARNLGPSFYFDYWGQGTLVTVSS
VL: DIQMTQSPSSLSASVGDRVTITCKASQDVSIGVAWYQQKPGKAPKLLIYSASYRYTGVPSRFSGSGSGTDFTLTISSLQPEDFATYYCQQHYTYPPTFGQGTKVEIK
In assay [2], B19 gave a dissociation constant (Kd) of 0.782 nM, a dissociation rate constant (koff) of 0.00063 s⁻¹ and a kon of 805000 M⁻¹ s⁻¹.

B20: Trastuzumab HC x Pertuzumab (Tras.L3) G32A LC (antibody, V domains shown)
VH: not shown
VL: DIQMTQSPSSLSASVGDRVTITCKASQDVSIAVAWYQQKPGKAPKLLIYSASYRYTGVPSRFSGSGSGTDFTLTISSLQPEDFATYYCQQHYTTPPTFGQGTKVEIK
In assay [2], B20 came in with an equilibrium dissociation constant (Kd) of 3.97 nM, a koff of 0.00268 s⁻¹ and a kon of 675000 M⁻¹ s⁻¹.

B21: Trastuzumab HC x Pertuzumab (Tras.L3) K24R LC (antibody, V domains shown)
VH: not shown
VL: DIQMTQSPSSLSASVGDRVTITCRASQDVSIGVAWYQQKPGKAPKLLIYSASYRYTGVPSRFSGSGSGTDFTLTISSLQPEDFATYYCQQHYTTPPTFGQGTKVEIK
In assay [2], B21 had a dissociation constant Kd of 66.8 nM, a dissociation rate constant (koff) of 0.0252 s⁻¹ and a kon of 377000 M⁻¹ s⁻¹.

B22: Trastuzumab HC x Pertuzumab (Tras.L3) Y53F LC (antibody, V domains shown)
VH: not shown
VL: DIQMTQSPSSLSASVGDRVTITCKASQDVSIGVAWYQQKPGKAPKLLIYSASFRYTGVPSRFSGSGSGTDFTLTISSLQPEDFATYYCQQHYTTPPTFGQGTKVEIK
With B22, in assay [2], the affinity, expressed as Kd, was 44.9 nM; the off-rate constant (koff) came to 0.0171 s⁻¹; the on-rate (kon) came out at 381000 M⁻¹ s⁻¹.
